The results in this text go back to patent US20190300618A1 (Merck Sharp & Dohme, published 2019).

Holding throughout (assay): flow cytometry, CHO-K1; sub-column 1 of 2
On the technique in general: A flow cytometer gives signals particle by particle.

Assay [1] deals with T1, K31A.
T1 construct: also called hCD27 K31A
T1 receptor: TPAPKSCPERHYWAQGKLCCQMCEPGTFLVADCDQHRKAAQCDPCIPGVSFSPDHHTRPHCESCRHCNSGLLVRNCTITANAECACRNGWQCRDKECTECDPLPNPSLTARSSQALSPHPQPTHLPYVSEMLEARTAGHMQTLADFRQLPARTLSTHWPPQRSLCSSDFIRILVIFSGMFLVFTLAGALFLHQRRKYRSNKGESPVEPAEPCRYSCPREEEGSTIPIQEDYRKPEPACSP

In assay [2] the target is T2, N88A.
T2 construct: also called hCD27 N88A
T2 receptor: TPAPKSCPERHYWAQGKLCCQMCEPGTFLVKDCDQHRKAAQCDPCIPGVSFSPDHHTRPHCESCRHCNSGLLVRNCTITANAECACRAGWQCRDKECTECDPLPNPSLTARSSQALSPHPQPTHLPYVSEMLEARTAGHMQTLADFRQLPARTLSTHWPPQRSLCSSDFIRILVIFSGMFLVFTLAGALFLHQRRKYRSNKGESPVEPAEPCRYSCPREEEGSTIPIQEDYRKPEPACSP

Assay [3] deals with T3, P8A.
T3 construct: also called hCD27 P8A
T3 receptor: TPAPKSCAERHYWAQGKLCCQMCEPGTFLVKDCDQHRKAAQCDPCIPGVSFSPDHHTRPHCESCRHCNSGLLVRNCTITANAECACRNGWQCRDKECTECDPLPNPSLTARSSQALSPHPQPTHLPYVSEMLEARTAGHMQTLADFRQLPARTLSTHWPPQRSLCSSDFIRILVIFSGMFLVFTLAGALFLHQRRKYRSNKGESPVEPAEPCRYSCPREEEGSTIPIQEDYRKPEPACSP

The target in assay [4] is T4, Q15A.
T4 construct: also called hCD27 Q15A
T4 receptor: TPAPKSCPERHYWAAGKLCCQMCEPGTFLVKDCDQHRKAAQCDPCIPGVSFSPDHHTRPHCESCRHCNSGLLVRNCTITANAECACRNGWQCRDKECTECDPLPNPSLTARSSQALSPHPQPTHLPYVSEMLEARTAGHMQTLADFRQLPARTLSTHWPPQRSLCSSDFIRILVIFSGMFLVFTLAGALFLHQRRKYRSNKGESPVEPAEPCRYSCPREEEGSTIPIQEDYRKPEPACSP

For assay [5], the target named is T5, W13A.
T5 construct: also called hCD27 W13A
T5 receptor: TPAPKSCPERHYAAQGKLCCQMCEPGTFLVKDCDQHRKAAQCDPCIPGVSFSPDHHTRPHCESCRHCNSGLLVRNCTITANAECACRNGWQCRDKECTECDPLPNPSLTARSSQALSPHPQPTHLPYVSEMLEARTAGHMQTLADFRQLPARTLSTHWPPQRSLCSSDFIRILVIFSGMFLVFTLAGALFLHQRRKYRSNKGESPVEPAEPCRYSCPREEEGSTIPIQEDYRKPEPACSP

Assay [6] deals with T6, G16A.
T6 construct: also called hCD27 G16A
T6 receptor: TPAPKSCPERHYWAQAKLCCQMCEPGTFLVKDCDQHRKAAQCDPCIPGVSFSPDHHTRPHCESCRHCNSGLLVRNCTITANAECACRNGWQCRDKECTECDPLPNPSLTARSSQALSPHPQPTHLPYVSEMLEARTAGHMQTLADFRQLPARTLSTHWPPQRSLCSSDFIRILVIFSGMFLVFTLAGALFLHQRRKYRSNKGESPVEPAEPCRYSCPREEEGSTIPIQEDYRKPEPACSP

The target of assay [7] is T7, R93A.
T7 construct: also called hCD27 R93A
T7 receptor: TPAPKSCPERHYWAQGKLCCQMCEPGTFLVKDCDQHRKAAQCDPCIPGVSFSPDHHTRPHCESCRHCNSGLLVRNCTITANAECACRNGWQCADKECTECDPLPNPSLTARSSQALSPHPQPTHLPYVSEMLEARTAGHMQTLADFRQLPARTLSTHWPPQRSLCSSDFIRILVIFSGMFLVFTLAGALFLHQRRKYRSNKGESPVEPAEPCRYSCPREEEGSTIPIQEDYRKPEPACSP

The target of assay [8] is T8, R37A.
T8 construct: also called hCD27 R37A
T8 receptor: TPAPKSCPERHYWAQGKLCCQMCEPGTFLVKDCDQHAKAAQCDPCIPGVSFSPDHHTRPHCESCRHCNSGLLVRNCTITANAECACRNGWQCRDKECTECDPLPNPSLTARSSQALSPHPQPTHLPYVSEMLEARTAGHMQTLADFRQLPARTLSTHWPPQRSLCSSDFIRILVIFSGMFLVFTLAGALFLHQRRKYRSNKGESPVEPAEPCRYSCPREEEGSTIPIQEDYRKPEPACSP

The target in assay [9] is T9, R10A.
T9 construct: also called hCD27 R10A
T9 receptor: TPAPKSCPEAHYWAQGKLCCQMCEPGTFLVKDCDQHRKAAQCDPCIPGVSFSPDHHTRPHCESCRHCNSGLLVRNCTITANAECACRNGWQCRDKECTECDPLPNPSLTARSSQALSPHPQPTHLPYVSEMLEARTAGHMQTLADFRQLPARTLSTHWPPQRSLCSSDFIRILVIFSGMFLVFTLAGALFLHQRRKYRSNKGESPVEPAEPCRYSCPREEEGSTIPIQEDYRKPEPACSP

The target of assay [10] is T10, D43A.
T10 construct: also called hCD27 D43A
T10 receptor: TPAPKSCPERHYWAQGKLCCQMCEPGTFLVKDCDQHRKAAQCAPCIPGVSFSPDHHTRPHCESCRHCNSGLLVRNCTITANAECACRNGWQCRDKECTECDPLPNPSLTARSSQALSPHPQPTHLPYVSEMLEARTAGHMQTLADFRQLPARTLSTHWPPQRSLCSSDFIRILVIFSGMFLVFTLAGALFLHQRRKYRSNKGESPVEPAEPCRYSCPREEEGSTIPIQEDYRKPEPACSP

Consider 1A4 (mouse IgG1) (antibody), for which the % of WT hCD27 binding (geo mean FITC) in assay [1] amounted to 194%; in assay [2], 154%; in [3] it was 84.5%; in assay [4] it was 32%; in assay [5] it was 89.1%; in assay [6] it was 90.8%. The % of WT hCD27 binding (geo mean FITC) came out at 120% in assay [7], 115% in assay [8], 107% in assay [9] and 195% in assay [10].
For 9F4 (mouse IgG2a) (antibody), the % of WT hCD27 binding (geo mean FITC) stood at 207% in [1]; 153% in assay [2]; 68.5% in assay [3]; 107% in [4]; 90.7% in [5]; 94.7% in assay [6]. Moreover, the % of WT hCD27 binding (geo mean FITC) in assay [7] turned out to be 122%; in [8], 35%; in [9] it was 104%; in assay [10], 201%.

B1: Antibody hCD27.131A (mouse parental 131A) (antibody, V domains shown)
VH: QIQLVQSGPELKKPGETVKISCKASGYTFTNYGMNWVKQAPGKGLKWMGWINTNTGEPTYAEEFKGRFAFSLETSATTAYLQINNLKNEDTATYFCAREGDAMDYWGQGTSVTVSS
VL: QIVLTQSPAIMSASPGEKVTMTCSASSSVSYMHWYQQKSGTSPKRWIYDTSKLASGVPARFSGSGSGTSYSLTISSMEAEDAATYYCQQWNSYPFTFGSGTKLEIK
notes: mouse IgG1; also called mouse hCD27.131A
For B1, the “% of WT hCD27 binding (geo mean FITC)” value is 203% in assay [1]; 162% in [2]; 44.9% in assay [3]; 99.6% in [4]; 86% in assay [5]; 94.8% in assay [6]. Also, the “% of WT hCD27 binding (geo mean FITC)” value in assay [7] turned out to be 125%; in assay [8], 50.3%; in assay [9], 103%; in [10] it was 194%.
